According to publication PMC8377056:
“And” between values parts separate entries of the source, which are not always exact repeats. Equal values may be shown once.

What was measured:
[1] = biological target: His-tagged recombinant mouse LDLR (mouse) (UniProt P35951); test: SPR; His-tagged LDLR immobilised on a NiHC1000m sensor chip; VH4127 (10-160 nM) or Fc(A680)-VH4127 (1-16 nM) injected, single-cycle kinetics; 1:1 Langmuir model; Biacore T200
[2] = biological target: His-tagged recombinant human LDLR (human) (UniProt P01130); test: SPR; His-tagged mouse or human LDLR immobilised on a NiHC1000m sensor chip; VH4127 (10-160 nM) or Fc(A680)-VH4127 (1-16 nM) injected, single-cycle kinetics; double-subtracted sensorgrams fitted globally with the 1:1 Langmuir model (Biacore T200)
[3] = biological target: His-tagged recombinant human LDLR (human) (UniProt P01130); test: SPR; His-tagged LDLR immobilised on a NiHC1000m sensor chip; VH4127 (10-160 nM) injected, single-cycle kinetic method; double-subtracted sensorgrams fitted globally with the 1:1 Langmuir model (Biacore T200)
[4] = biological target: His-tagged recombinant mouse LDLR (mouse) (UniProt P35951); test: as above

Chain of His-tagged recombinant mouse LDLR (mouse) (P35951 22-790): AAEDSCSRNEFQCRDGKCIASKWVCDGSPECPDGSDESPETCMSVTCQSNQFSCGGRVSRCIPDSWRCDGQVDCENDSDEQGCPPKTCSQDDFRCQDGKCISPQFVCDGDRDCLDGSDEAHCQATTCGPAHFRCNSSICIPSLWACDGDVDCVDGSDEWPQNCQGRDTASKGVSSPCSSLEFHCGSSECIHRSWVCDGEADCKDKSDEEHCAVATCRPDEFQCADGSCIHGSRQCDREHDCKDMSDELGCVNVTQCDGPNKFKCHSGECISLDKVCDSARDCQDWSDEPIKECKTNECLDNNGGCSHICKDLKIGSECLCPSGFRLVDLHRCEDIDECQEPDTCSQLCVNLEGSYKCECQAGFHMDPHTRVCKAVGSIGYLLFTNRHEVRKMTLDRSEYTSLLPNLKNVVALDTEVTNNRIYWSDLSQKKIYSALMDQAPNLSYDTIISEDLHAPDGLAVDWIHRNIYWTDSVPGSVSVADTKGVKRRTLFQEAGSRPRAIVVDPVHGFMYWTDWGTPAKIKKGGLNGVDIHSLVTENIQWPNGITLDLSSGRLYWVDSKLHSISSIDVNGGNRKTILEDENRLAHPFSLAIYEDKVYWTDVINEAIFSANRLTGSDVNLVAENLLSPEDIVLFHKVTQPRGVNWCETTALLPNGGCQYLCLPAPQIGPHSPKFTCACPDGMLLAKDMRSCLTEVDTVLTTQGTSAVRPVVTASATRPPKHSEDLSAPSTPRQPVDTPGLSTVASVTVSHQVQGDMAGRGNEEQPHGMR
Chain of His-tagged recombinant human LDLR (human) (P01130 22-788): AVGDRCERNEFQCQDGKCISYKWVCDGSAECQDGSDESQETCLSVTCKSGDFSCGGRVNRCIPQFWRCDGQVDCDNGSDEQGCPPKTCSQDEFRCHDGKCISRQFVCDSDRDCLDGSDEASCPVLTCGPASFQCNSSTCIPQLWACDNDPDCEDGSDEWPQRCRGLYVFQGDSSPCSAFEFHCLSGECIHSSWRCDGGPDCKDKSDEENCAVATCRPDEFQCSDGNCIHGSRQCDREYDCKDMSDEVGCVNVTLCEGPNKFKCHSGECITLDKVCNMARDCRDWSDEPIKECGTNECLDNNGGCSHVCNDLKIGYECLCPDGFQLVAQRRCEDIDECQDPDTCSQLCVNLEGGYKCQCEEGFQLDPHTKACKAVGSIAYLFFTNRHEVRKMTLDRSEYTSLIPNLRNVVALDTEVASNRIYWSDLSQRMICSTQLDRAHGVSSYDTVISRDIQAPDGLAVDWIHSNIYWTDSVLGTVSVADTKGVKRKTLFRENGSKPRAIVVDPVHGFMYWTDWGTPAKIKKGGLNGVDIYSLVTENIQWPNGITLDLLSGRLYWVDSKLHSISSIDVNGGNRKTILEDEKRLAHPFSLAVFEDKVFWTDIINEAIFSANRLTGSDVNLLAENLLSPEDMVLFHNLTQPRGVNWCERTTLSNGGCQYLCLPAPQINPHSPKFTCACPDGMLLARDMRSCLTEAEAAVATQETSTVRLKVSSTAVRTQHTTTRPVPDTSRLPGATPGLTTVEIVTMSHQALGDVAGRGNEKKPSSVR

| Substance | Kd [1] [nM] | Kd [2] | koff [3] [s⁻¹] | kon [3] [M⁻¹ s⁻¹] | koff [4] [s⁻¹] | kon [4] [M⁻¹ s⁻¹] |
| --- | --- | --- | --- | --- | --- | --- |
| Fc(A680)-VH4127 conjugate (Fc fusion) | 0.0918 |  |  |  |  |  |
| VH4127 peptide |  | 21.5 nM and 20 nM and 23.2 nM | 0.0894 | 4.06e+06 | 0.0821 | 1.66e+06 |
